Key:
[1] = system: ACTH (adrenocorticotropic hormone)
Aβ42 = Aβ42 (UniProt P05067)
synthetic Aβ40 = synthetic Aβ40 (UniProt P05067)

recombinant GCP-II protein purified from insect cells (Sf21)
MALDI-TOF molecular weight after reaction with GCP-II at 37° C. for 15 hours [1]: characteristically not degraded by GCP-II | Western blot (anti-Aβ antibody 6E10) of Aβ matured for 7 days after 20 hours with rGCP-II (Aβ (length not stated)): Aβ in oligomer form (multimer) was reduced faster than Aβ monomer | endogenous Aβ42 remaining (ELISA) in the medium of swAPP stable HEK293 colony #2 with 0, 0.5, 2.5 and 10 of rGCP-II (Aβ42): the level of endogenous Aβ42 was decreased | MALDI-TOF molecular weight after reaction with GCP-II at 37° C. for 15 hours (amylin): amylin showed two peaks at 1500 and 2000 after being reacted with GCP-II | MALDI-TOF molecular weight after reaction with GCP-II at 37° C. for 15 hours (insulin β-chain): characteristically not degraded by GCP-II | MALDI-TOF of Aβ40 reacted with GCP-II protein at more than 25 ng/µL (synthetic Aβ40): only one peak was observed at 2,167 which corresponds to Aβ18 | MALDI-TOF of Aβ40 reacted with GCP-II protein for 20 hours (synthetic Aβ40): two new peaks were observed at 3915 and 2662 in Aβ reacted with 0.5 ng/µM of GCP-II | MALDI-TOF of Aβ reacted with GCP-II inactivated by heating (boiled rGCP-II) (synthetic Aβ40): Aβ was not degraded by the inactivated GCP-II

Source: patent US20080305099
